What was measured:
[1] = molecular target: ALYREF-ΔNC, with the N- and C-terminal UAP56-binding motifs (UBMs) deleted (human) (UniProt Q86V81)
[2] = molecular target: ALYREF-ΔNC, with the N- and C-terminal UAP56-binding motifs (UBMs) deleted (human) (UniProt Q86V81); experiment: pull-down; Nickel-NTA affinity pull-down: 2 ug His6-tagged ALYREF or variant with 4 ug UAP56 in 30 ul K buffer (20 mM KH2PO4 pH 7.4, 10% glycerol, 0.5 mM EDTA, 0.01% Igepal, 1 mM DTT) with 200 mM KCl and 15 mM imidazole, 30 min at 4 °C; captured on Ni-NTA resin, eluted with 2% SDS; SDS-PAGE, Coomassie stain

Sequence of UAP56 (Q13838 whole entry): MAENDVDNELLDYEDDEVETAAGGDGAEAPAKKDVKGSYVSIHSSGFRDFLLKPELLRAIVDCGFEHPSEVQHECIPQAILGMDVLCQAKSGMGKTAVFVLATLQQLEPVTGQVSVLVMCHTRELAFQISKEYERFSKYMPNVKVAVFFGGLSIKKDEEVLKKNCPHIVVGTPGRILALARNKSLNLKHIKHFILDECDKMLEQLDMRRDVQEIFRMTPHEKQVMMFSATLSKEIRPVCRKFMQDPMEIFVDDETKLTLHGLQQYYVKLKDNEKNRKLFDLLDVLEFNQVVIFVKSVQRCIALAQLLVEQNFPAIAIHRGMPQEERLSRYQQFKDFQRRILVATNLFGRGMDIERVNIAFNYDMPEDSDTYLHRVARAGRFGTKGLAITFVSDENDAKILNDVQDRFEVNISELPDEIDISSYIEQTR

“UAP56 (from UniProt Q13838 1-428) (enzyme)” was tested, and the time course (5, 10, 15 min) of R-loop dissociation by 60 nM UAP56 with 6 nM ALYREF-ΔNC; fold increase at 5 min [1] was 12 fold and the percent of the ability to interact with UAP56 lost, against WT ALYREF [2] was 80%.
